These results are taken from paper PMC4144780, “MSRB7 reverses oxidation of GSTF2/3 to confer tolerance of Arabidopsis thaliana to oxidative stress” (Journal of Experimental Botany, 2014).

One test deals with T1, oxidized His–GSTF2 (A. thaliana, UniProt P46422 1-212, oxidized (positions not stated for this sample)).
T1 construct: Glutathione S-transferase F2 (GSTF2), A. thaliana, locus At4g02520; cloned into pET-53-DEST; How it was oxidized is told only for the activity assay (0.5 mM HOCl, 40 min, stopped with 5 mM Met); also called recombinant GSTF2; MetO–GSTF2
T1 sequence (looked up): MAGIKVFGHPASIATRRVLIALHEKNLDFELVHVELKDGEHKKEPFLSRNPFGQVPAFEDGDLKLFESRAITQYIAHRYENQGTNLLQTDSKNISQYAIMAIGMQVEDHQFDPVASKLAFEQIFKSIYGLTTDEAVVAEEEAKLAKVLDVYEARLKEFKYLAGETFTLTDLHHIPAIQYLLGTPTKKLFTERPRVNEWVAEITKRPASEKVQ
Put plainly: co-IP; recombinant His–flag–MSRB7 and oxidized His–GSTs incubated with rabbit anti-flag antibody in IP buffer (15 mM HEPES pH 7.4, 1 mM EDTA, 1 mM DTT, 10 mM MgCl2, 30 mM KCl) 1 h at room temperature; Protein G–Sepharose; blot with mouse anti-His antibody. Conditions: both partners purified.

The next test concerns the target T2, oxidized His–GSTF3 (A. thaliana, UniProt Q9SLM6 1-212, oxidized (positions not stated for this sample)).
T2 construct: Glutathione S-transferase F3 (GSTF3), A. thaliana, locus At2g02930; cloned into pET-53-DEST; How it was oxidized is told only for the activity assay (0.5 mM HOCl, 40 min, stopped with 5 mM Met); also called recombinant GSTF3; MetO–GSTF3
T2 sequence (looked up): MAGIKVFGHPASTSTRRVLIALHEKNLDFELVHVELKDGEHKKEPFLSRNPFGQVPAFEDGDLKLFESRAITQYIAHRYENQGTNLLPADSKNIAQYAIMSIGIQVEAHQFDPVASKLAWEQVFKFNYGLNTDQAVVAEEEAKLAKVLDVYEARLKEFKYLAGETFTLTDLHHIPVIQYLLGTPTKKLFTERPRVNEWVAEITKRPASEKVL
The test is described as above. Conditions: both partners purified.

B1: His–flag–MSRB7 (enzyme, A. thaliana, UniProt Q8VY86 1-144, looked up)
chain: MAAMTAAAVPATGSFQKQDEEWRAVLSPEQFRVLRLKGTDKRGKGEFTKKFEEGTYSCAGCGTALYKSTTKFDSGCGWPAFFDAIPGAIKQTPEAGGRRMEITCAVCDGHLGHVFKGEGYSTPTDQRHCVNSVSLKFSSAGSSQ
notes: Methionine sulfoxide reductase B7 (MSRB7), A. thaliana, locus At4g21830; N terminus fused with a flag tag, cloned into pET-53-DEST; also called recombinant MSRB7; not shown: flag, N-terminal, kept
As for B1, the binding result with oxidized His–GSTF2 and with oxidized His–GSTF3 was “binds” throughout.
